Series [1] addresses T1, p53 wild-type (Homo sapiens, UniProt P04637 P04637:1-393). Briefly: pulldown. Conditions: chain copies: 4; label: 32P. The text has this: FIG. 11A. […] For each sample, the control lane (C) contained 2% of the total DNA used in the binding reaction, and was composed of two fragments: 2.9 kb vector DNA fragment, and a fragment of 40 to 80 bp containing no insert (lane 9; XhoI plus Pst1 digest of pBluescript II SK+), the 10 bp consensus monomer sequence 5′-[…]-3′ (lane 5), or multimers of this sequence arranged as indicated (lanes 1 to 4, 6, to 8). Bound DNA from the IP is shown in the B lanes.
To determine if the 10 bp consensus monomer could bind p53, a synthetic oligonucleotide (5′-[…]-3′) containing the consensus sequence was studied. Oligonucleotide duplexes were tested either directly or after cloning into plasmid vectors. […] Two variants of the consensus motif were also tested for binding. In the first, the two critical G:C bp's at position 4 and 6 of the monomer were substituted with A:T bp's (FIG. 10, synthetic oligonucleotides 1,2).

For series [2], the target named is T1, p53 wild-type. As to the kind of experiment: pulldown. Conditions: chain copies: 4.
For series [3], the target named is T1, p53 wild-type. As to the kind of experiment: pulldown; monomer alone, not shown. As to conditions: chain copies: 4.

T1 sequence (P04637 whole entry, the tested form may be a part, one chain of several): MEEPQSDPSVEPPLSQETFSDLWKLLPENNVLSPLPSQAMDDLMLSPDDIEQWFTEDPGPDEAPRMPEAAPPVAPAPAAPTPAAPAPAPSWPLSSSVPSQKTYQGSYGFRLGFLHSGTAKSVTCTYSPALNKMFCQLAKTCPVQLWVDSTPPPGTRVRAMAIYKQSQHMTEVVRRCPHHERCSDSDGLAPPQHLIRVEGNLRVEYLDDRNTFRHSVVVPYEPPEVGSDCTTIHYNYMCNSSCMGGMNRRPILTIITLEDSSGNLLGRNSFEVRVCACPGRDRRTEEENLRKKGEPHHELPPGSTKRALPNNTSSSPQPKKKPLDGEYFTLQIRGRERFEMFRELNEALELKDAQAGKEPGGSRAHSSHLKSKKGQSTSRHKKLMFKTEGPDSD

B1: synthetic oligo 9 (cloned monomer) (dsDNA)
DNA 1: TGCAGGAATTCGATAGGCATGTCTATCAAGCTTATCGAT
DNA 2: ATCGATAAGCTTGATAGACATGCCTATCGAATTCCTGCA
As to B1, in series [1], the binding result is given as “no binding”.

B2: synthetic oligo 5 (direct half-site repeats) (dsDNA)
DNA 1: AGGCAAGGCAAGGCAAGGCA
DNA 2: TGCCTTGCCTTGCCTTGCCT
Take B2: the binding result in series [2] is listed as “no binding”.

B3: synthetic oligo 2 (A:T-substituted dimer) (dsDNA)
DNA 1: AGGAATTCCTAGGAATTCCT
DNA 2: AGGAATTCCTAGGAATTCCT
As to B3, in series [2], the binding result was “no binding”.

B4: synthetic oligo 1 (A:T-substituted monomer) (dsDNA)
DNA 1: AGGAATTCCT
DNA 2: AGGAATTCCT
Turning to B4, in series [2], the binding result is given as “no binding”.

B5: fragment A subfragment 5 (dsDNA)
DNA 1: AGTGAAAGCAGGTAGATTGCCTTGCCTGGACTTGCCTGGCCTTGCCTTTTCTTTC
DNA 2: GAAAGAAAAGGCAAGGCCAGGCAAGTCCAGGCAAGGCAATCTACCTGCTTTCACT
Regarding B5, in series [2] (label: 32P), the binding result is on record as “binds”.

B6: synthetic oligo 6 (cloned consensus dimer) (dsDNA)
DNA 1: TGCAGGAATTCGATAGGCATGTCTAGGCATGTCTATCAAGCTTATCGAT
DNA 2: ATCGATAAGCTTGATAGACATGCCTAGACATGCCTATCGAATTCCTGCA
Turning to B6, in series [1], the binding result is recorded as “binds”.

B7: synthetic oligo 8 (cloned consensus dimer, inverted) (dsDNA)
DNA 1: TGCAGGAATTCGATAGACATGCCTAGGCATGTCTATCAAGCTTATCGAT
DNA 2: ATCGATAAGCTTGATAGACATGCCTAGGCATGTCTATCGAATTCCTGCA
In the case of B7, the binding result in series [1] is “binds”.

B8: synthetic oligo 7 (cloned consensus dimer, inverted) (dsDNA)
DNA 1: TGCAGGAATTCGATAGGCATGTCTAGACATGCCTATCAAGCTTATCGAT
DNA 2: ATCGATAAGCTTGATAGGCATGTCTAGACATGCCTATCGAATTCCTGCA
With B8, in series [1], the binding result is “binds”.

B9: consensus monomer (dsDNA)
DNA 1: AGGCATGTCT
DNA 2: AGACATGCCT
On to B9, for which, in series [3], the binding result is reported as “no binding”.

For the origin of these results see patent publication US20020164595, “Sequence specific DNA binding by p53” (published 2002).
